Laboratory results taken from patent US20230129258A1 (Bicycle, published 2023).
Starred links: 1 amine or outer side, 2 acyl side, 3 side chain; linkers in the order of their positions; H or OH if unused. Positions of bridges follow the written chain, without caps; N, C: chain ends. Non-standard residues stand in square brackets, D forms with d. Chains are numbered I, II in the order given. No end group written: not given here. dLys(PYA) = D-lysine Nε-acylated with 4-pentynoic acid, clicked (triazole) to the linker azide, O=C(CCc1cn([*:3])nn1)NCCCC[C@@H](N[*:1])C(=O)[*:2]; TATA = O=C(CC[*:1])N1CN(C(=O)CC[*:2])CN(C(=O)CC[*:3])C1; 1Nal = N[C@@H](Cc1cccc2ccccc12)C(=O)O; Hyp = O=C(O)[C@@H]1C[C@@H](O)CN1; hArg = N=C(N)NCCCC[C@H](N)C(=O)O; tBuAla = CC(C)(C)C[C@H](N)C(=O)O; Nle = CCCC[C@H](N)C(=O)O

Legend:
[1] = target: CD137 on Jurkat reporter cells (Promega kit CS196005) (UniProt Q07011 24-255, limits assumed); assay: cell-based or functional assay
[2] = target: T1, Nectin-1 (2880-N1, R&D Systems) (UniProt Q15223 31-334, limits assumed, biotinylated); assay: SPR, biotinylated target on streptavidin surface
T1 sequence (looked up): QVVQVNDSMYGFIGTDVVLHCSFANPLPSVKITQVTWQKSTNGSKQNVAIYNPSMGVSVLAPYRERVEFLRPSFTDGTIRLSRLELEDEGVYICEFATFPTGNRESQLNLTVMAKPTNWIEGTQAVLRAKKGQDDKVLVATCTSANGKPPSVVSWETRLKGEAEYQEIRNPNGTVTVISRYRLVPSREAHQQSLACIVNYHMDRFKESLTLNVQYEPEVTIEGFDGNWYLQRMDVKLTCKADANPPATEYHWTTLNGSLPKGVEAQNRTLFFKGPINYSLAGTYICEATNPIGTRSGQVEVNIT

[3] = target: T2, Nectin-like-1 (3678-S4-050, R&D Systems) (UniProt Q8N126 25-330, biotinylated); assay: SPR, biotinylated target on streptavidin surface
T2 sequence (looked up): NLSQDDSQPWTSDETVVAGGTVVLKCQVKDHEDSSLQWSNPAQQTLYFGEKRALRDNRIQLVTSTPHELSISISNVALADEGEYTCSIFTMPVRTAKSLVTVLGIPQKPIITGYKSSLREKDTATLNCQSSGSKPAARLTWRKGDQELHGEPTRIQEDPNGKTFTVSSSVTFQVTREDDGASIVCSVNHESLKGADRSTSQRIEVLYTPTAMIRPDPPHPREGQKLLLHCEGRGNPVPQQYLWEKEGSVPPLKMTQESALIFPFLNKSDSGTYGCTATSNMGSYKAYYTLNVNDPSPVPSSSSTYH

[4] = target: T3, human Nectin-4 extracellular domain (human, UniProt Q96NY8 32-349, biotinylated where captured on the streptavidin chip); assay: SPR, one example sensorgram (FIG. 21A), immobilized Nectin-4
T3 construct: extracellular domain; also called Nectin-4 (human); Biotinylated - Nectin-4 extracellular domain
T3 sequence (looked up): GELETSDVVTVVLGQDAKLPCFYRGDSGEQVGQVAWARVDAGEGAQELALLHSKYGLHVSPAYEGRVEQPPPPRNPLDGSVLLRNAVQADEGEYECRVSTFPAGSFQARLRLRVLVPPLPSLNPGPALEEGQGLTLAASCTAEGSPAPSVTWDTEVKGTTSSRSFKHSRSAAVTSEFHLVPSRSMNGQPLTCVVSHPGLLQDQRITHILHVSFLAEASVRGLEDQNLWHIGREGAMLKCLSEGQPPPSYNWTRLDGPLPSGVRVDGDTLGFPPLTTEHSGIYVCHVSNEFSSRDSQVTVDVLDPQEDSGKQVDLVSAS

[5] = target: T4, rat Nectin-4 extracellular domain (rat, UniProt D3ZET1 31-348, biotinylated where captured on the streptavidin chip); assay: SPR direct binding, biotinylated Nectin-4 ECD on streptavidin chip, 25° C., n = 6
T4 construct: extracellular domain
T4 sequence: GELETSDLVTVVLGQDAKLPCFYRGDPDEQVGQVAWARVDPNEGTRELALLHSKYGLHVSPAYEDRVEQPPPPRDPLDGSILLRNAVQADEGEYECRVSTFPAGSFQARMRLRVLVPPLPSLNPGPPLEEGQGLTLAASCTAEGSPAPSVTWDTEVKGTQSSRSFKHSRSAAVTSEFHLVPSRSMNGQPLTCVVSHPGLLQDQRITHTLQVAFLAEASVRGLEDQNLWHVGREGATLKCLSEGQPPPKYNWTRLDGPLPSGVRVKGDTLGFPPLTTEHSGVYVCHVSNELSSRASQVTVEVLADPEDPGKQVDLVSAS

[6] = target: T3, human Nectin-4 extracellular domain; assay: SPR direct binding, biotinylated Nectin-4 ECD on streptavidin chip, 37° C., n = 9
[7] = target: T5, cyno (NHP) CD137 extracellular domain (cyno (NHP), UniProt A9YYE7 24-186); assay: SPR dual binding, BCY11863 captured on biotinylated human Nectin-4, soluble CD137 ECD passed over, n = 3
T5 construct: extracellular domain

[8] = target: T6, cyno (NHP) Nectin-4 extracellular domain (cyno (NHP), UniProt A0A2K5WES1 32-349, biotinylated where captured on the streptavidin chip); assay: SPR sandwich assay, BCY11863 captured on biotinylated human CD137, soluble Nectin-4 ECD passed over, n = 3
T6 construct: extracellular domain
T6 sequence: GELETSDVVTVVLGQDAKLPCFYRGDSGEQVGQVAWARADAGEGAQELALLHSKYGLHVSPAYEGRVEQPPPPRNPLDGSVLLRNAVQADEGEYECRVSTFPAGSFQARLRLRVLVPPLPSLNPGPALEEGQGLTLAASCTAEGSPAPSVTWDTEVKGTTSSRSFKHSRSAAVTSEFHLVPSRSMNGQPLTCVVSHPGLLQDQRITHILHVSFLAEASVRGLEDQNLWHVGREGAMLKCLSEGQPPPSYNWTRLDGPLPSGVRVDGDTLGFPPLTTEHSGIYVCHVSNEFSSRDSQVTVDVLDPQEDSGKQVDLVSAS

[9] = target: T3, human Nectin-4 extracellular domain; assay: SPR sandwich assay, BCY11863 captured on biotinylated human CD137, soluble Nectin-4 ECD passed over, n = 4
[10] = target: T7, human CD137 extracellular domain (human, UniProt Q07011 24-186, biotinylated where captured on the streptavidin chip); assay: SPR, direct binding of BCY11863 to immobilized human CD137, 1:1 fit; the text says the reported KD may be an overestimation (avidity)
T7 construct: extracellular domain; Section 17 says only 'Recombinant human CD137 (R&D systems)'; also called CD137 (human); Recombinant human CD137 (R&D systems)

[11] = target: T7, human CD137 extracellular domain; assay: SPR, direct binding of BCY11863 to immobilized human CD137, 1:1 fit; the text calls the off rate very slow (avidity from two CD137 bicycles)

Chain of CD137 on Jurkat reporter cells (Promega kit CS196005) (Q07011 24-255 limits assumed): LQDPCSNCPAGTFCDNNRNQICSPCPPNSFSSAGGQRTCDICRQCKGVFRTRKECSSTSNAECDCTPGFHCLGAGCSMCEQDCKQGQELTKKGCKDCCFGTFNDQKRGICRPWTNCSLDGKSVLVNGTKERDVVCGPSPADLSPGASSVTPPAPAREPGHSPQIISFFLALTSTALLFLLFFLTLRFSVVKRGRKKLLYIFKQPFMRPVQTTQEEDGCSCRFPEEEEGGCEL
T7 sequence (Q07011 24-186): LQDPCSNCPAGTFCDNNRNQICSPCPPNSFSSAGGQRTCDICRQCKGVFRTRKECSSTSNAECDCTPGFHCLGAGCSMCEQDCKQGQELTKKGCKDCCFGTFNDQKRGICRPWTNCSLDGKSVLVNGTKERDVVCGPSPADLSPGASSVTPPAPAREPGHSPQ
T5 sequence (A9YYE7 entry or part of it): as the sequence (Q07011 24-186) above, with P4L, N19S, R50K, T66I, P67S, F69Y, G75E, V149A counted along it

B1: heterotandem bicyclic peptide complex BCY11863 (peptide)
peptide 1: CP[1Nal][dD]CM[hArg]DWSTP[Hyp]WC
peptide 2: Ac-C[tBuAla]PE[dLys(PYA)]PYCFADPY[Nle]CA
modifications: linker I:1-I:5-I:15, II:1-II:8-II:15 via TATA; not fully specified (bridges); also: 1:2 complex: BCY8116 + 2x BCY8928
notes: also called Nectin-4/CD137 heterotandem
- Arithmetic mean EC50 (nM), CT26#7 co-culture [1]: 0.14 nM
- Arithmetic mean EC50 (nM), HT1376 co-culture [1]: 0.52 nM
- Arithmetic mean EC50 (nM), MC38#13 co-culture [1]: 0.31 nM
- Arithmetic mean EC50 (nM), MDA-MB-468 co-culture [1]: 0.23 nM
- Arithmetic mean EC50 (nM), NCI-H292 co-culture [1]: 0.28 nM
- Arithmetic mean EC50 (nM), NCI-H322 co-culture [1]: 0.33 nM
- Arithmetic mean EC50 (nM), T47D co-culture [1]: 0.42 nM
- binding result [2]: no binding (tested: 5000 nM)
- binding result [3]: no binding (tested: 5000 nM)
- Kd [4]: 4100 pM
- Kd [5]: 15000 pM
- Kd [6]: 5200 pM
- Kd [7]: 18000 pM
- Kd [8]: 28000 pM
- Kd [9]: 12000 pM
- Kd [10]: 368 pM
- koff [11]: 0.00035 s⁻¹
